Experimental data reported in patent publication US20090099029.

Molecular target: Bovine, dephosphorylated, Myelin Basic Protein (MBP) (UniProt P02687)
Sequence (P02687 whole entry): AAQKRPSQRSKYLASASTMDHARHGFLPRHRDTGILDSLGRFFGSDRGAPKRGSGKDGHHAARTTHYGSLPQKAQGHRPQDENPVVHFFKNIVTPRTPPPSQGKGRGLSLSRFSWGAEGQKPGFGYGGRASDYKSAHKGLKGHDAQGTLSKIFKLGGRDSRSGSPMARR

Sequence of NEK6 (chain, as listed by the source): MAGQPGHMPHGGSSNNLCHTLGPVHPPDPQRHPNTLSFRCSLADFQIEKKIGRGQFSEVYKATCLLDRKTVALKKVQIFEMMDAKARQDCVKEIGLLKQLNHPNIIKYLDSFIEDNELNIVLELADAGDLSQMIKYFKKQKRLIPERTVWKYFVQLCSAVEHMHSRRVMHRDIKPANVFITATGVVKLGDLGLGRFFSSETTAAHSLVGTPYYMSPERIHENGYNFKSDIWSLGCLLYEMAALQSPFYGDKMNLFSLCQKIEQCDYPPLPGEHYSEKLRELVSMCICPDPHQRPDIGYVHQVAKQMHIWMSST
Sequence of PIM2 (chain, as listed by the source): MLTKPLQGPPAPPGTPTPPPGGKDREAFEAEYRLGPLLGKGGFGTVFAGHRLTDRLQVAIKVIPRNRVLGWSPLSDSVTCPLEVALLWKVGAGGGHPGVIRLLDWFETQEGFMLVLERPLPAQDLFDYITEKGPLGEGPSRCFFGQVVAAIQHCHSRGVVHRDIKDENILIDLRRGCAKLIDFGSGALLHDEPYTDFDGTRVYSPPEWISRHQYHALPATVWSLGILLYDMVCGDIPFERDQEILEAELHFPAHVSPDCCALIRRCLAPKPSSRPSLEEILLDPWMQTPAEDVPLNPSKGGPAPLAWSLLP
Sequence of EPHA7 (chain, as listed by the source): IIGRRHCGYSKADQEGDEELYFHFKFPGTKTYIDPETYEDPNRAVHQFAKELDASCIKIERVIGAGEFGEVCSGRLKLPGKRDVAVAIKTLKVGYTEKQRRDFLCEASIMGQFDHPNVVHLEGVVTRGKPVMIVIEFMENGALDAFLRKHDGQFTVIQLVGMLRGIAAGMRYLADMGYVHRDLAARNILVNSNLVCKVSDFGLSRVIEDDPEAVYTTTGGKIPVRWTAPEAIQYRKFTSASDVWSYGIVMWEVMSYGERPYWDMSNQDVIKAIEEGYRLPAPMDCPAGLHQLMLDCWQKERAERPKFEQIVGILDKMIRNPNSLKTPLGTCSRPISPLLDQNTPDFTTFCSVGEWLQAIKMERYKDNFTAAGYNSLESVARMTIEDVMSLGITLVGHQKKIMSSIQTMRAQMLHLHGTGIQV
Sequence of STK24(MST3) (chain, as listed by the source): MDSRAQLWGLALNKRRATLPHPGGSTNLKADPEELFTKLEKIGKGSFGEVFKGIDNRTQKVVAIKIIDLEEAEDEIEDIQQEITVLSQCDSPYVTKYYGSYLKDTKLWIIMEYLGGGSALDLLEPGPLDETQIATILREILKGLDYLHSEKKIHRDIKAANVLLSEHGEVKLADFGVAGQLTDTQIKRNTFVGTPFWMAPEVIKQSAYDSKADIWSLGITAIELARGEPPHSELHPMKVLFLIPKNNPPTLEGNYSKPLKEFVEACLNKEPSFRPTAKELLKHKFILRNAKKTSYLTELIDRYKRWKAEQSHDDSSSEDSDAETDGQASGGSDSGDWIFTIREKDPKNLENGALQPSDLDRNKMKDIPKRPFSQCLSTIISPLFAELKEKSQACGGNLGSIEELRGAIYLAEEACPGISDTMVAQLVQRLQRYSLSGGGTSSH
Sequence of CLK1 (chain, as listed by the source): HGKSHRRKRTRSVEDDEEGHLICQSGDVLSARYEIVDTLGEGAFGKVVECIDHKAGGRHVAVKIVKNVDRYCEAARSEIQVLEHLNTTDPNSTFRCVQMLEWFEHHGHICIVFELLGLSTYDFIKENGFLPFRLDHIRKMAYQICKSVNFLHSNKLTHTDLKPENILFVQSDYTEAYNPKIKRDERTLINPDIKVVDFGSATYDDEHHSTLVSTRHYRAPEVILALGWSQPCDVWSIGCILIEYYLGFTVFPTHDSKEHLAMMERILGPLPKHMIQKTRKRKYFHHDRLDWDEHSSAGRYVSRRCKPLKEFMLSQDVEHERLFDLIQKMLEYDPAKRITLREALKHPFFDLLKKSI
Sequence of FYN (chain, as listed by the source): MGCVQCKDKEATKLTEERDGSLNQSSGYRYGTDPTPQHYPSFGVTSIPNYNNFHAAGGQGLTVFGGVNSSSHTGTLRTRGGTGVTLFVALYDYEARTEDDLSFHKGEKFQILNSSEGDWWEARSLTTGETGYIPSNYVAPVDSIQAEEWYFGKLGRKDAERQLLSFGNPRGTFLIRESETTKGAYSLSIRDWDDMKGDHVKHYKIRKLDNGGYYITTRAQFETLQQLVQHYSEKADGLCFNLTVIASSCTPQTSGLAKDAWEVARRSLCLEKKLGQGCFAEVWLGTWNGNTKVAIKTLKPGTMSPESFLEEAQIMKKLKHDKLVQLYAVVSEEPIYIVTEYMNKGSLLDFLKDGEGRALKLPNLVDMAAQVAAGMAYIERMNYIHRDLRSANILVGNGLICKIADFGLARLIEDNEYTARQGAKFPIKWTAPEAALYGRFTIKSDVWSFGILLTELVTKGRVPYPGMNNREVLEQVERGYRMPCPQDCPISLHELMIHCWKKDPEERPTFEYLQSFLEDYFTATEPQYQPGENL
Sequence of NTRK1 (chain, as listed by the source): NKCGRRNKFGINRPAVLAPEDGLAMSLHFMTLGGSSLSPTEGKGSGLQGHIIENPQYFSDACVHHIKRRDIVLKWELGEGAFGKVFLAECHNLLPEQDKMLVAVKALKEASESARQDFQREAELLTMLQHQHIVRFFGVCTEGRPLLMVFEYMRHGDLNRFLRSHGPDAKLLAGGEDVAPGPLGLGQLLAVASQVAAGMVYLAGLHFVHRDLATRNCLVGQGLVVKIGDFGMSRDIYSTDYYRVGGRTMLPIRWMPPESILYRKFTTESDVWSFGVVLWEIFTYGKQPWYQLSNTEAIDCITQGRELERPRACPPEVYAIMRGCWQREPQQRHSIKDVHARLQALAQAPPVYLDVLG
Sequence of MAP4K5(KHS1) (chain, as listed by the source): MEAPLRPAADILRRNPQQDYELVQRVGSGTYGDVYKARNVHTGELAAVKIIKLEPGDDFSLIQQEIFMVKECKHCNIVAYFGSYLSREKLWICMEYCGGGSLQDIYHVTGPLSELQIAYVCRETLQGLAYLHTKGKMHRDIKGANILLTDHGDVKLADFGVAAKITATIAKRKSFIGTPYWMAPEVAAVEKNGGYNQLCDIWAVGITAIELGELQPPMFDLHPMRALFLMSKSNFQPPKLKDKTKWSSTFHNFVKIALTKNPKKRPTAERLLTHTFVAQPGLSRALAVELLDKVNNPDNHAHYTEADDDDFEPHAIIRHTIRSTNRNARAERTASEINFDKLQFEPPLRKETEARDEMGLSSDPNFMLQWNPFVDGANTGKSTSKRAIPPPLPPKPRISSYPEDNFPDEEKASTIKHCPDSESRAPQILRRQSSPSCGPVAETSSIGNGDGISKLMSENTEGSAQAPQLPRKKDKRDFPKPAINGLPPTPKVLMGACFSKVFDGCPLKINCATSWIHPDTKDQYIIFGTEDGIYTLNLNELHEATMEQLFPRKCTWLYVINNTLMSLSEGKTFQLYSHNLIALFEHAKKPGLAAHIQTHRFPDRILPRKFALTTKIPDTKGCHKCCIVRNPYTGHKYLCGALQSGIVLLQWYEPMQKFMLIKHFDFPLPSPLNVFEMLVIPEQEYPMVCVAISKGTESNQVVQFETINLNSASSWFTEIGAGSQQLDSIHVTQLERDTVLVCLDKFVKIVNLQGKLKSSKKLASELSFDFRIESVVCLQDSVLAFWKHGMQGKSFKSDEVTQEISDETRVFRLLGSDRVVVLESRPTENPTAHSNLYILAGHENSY
Sequence of CSNK1G1(CK1gamma1) (chain, as listed by the source): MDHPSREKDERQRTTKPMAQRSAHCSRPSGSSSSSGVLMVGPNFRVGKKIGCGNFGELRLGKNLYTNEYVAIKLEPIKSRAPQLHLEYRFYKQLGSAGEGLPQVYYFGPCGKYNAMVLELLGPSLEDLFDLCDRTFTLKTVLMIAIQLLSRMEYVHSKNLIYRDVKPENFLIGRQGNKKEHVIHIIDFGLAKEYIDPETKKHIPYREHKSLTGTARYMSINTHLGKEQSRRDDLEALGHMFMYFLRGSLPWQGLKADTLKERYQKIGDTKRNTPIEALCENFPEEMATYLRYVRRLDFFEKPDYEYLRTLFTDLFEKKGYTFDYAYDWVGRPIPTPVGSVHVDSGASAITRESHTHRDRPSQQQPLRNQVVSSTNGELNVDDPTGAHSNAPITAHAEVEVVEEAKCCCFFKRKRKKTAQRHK
Sequence of MST4 (chain, as listed by the source): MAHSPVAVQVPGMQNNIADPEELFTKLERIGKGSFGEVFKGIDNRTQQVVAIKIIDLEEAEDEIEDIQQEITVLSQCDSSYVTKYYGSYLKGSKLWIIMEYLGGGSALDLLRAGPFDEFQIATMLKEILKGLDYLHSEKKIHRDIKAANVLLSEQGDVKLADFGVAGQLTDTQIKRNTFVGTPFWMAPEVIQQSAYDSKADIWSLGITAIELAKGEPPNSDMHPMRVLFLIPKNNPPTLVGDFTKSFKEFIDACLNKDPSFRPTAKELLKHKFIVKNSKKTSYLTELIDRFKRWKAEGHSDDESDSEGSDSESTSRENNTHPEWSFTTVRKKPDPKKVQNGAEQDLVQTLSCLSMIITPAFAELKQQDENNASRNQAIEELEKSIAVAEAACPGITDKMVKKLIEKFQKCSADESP
Sequence of NEK7 (chain, as listed by the source): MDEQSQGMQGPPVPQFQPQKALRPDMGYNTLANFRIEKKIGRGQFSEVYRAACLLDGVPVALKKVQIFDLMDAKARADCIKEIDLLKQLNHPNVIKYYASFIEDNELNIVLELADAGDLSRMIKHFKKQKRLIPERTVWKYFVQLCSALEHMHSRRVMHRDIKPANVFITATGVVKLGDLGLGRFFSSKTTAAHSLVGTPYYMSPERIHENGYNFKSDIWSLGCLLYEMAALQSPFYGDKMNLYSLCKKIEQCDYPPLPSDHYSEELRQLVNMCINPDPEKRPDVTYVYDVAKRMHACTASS

Substance | MBP Kinase Activity
ADRBK2(GRK3) | Negative
AKT1 | Strong
BLK | Weak
CDK1/cyclin B | Strong
CLK1 | Strong
CLK3 | Strong
CLK4 | Negative
CSNK1G1(CK1gamma1) | Negative
CSNK1G2 | Negative
CSNK1G3 | Weak
EGFR | Negative
EPHA7 | Weak
FGR | Weak
FYN | Strong
MAP4K5(KHS1) | Negative
MLCK | Negative
MST4 | Negative
NEK6 | Negative

Substance | MBP Kinase Activity
NEK7 | Negative
NTRK1 | Strong
NTRK2 | Strong
NTRK3 | Strong
PHKG1 | Negative
PIM1 | Strong
PIM2 | Weak
PKN1(PRK1) | Strong
PRKCB1 | Strong
PRKCD | Strong
PRKCG | Strong
SGK | Strong
SGKL(SGK3) | Weak
STK24(MST3) | Weak
STK25(YSK1) | Strong
WEE1 | Negative
YES1 | Weak
